T1: Protein Shroom 3 peptide (18-mer) (human)
T1 peptide: ASDSGRGPQRPDARLLRS

T2: Large proline-rich protein BAT3 peptide (18-mer) (human)
T2 peptide: QTLGQQVPGFPTAPTRVV

T3: Paxillin-associated protein with ARF GAP activity 3 peptide (18-mer) (human)
T3 peptide: GISQIRPPPLPPQPPSRL

T4: Dynein heavy chain 6 peptide (18-mer) (human)
T4 peptide: EKERPPKPEAPWLPTATW

T5: Chromodomain helicase-DNA binding protein 3 peptide (18-mer) (human)
T5 peptide: YLNLSQEPAHPAMALHAR

T6: Eukaryotic translation initiation factor 2-a kinase 3 peptide (18-mer) (human)
T6 peptide: VRISEKFPSSPKALESVT

T7: Serotransferrin peptide (18-mer) (human)
T7 peptide: NLREGTCPEAPTDECKPV

T8: Calpain-2 catalytic subunit peptide (18-mer) (human)
T8 peptide: AGTLFQDPSFPAIPSALG

T9: CDK5 and ABL1 enzyme substrate 1 peptide (18-mer) (human)
T9 peptide: GCIALAAPGTPAAGLAAG

T10: Vigilin peptide (18-mer) (human)
T10 peptide: PTYKDAFPPLPEKAACLE

T11: Cathepsin B peptide (18-mer) (human)
T11 peptide: CGTFLGGPKPPQRVMFTE

T12: Protein FAM134C peptide (18-mer) (human)
T12 peptide: ALVEVLGPYEPLLSRVQA

T13: SRA stem-loop–interacting RNA binding protein, mitochondrial peptide (18-mer) (human)
T13 peptide: VQVHTRRPKLPQTSDDEK

B1: GST-tagged ARHGAP10 SH3 domain (domain or fragment, human, UniProt A1A4S6 731-786, looked up)
chain: RKARAVYPCEAEHSSELSFEIGAIFEDVQTSREPGWLEGTLNGKRGLIPQNYVKLL
B2: GST-tagged RICS SH3 domain (domain or fragment, human, UniProt A7KAX9 262-320, looked up)
chain: GAAHVIKRYTARAPDELTLEVGDIVSVIDMPPKVLSTWWRGKHGFQVGLFPGHCVELIN

Legend:
Test in all cases: peptide or protein array
[1] = molecular target: T1, Protein Shroom 3 peptide (18-mer)
[2] = molecular target: T2, Large proline-rich protein BAT3 peptide …
[3] = molecular target: T3, Paxillin-associated protein with ARF …
[4] = molecular target: T4, Dynein heavy chain 6 peptide (18-mer)
[5] = molecular target: T5, Chromodomain helicase-DNA binding …
[6] = molecular target: T6, Eukaryotic translation initiation …
[7] = molecular target: T7, Serotransferrin peptide (18-mer)
[8] = molecular target: T8, Calpain-2 catalytic subunit peptide …
[9] = molecular target: T9, CDK5 and ABL1 enzyme substrate 1 …
Vigilin peptide (18-mer) = molecular target: T10, Vigilin peptide (18-mer)
[10] = molecular target: T11, Cathepsin B peptide (18-mer)
[11] = molecular target: T12, Protein FAM134C peptide (18-mer)
[12] = molecular target: T13, SRA stem-loop–interacting RNA binding …

Binder | relative binding strength (% of the strongest interaction of this SH3 domain) [1] | relative binding strength (% of the strongest interaction of this SH3 domain) [2] | relative binding strength (% of the strongest interaction of this SH3 domain) [3] | relative binding strength (% of the strongest interaction of this SH3 domain) [4] | relative binding strength (% of the strongest interaction of this SH3 domain) [5] | relative binding strength (% of the strongest interaction of this SH3 domain) [6] | relative binding strength (% of the strongest interaction of this SH3 domain) [7] | relative binding strength (% of the strongest interaction of this SH3 domain) [8] | relative binding strength (% of the strongest interaction of this SH3 domain) [9] | relative binding strength (% of the strongest interaction of this SH3 domain) (Vigilin peptide (18-mer)) | relative binding strength (% of the strongest interaction of this SH3 domain) [10] | relative binding strength (% of the strongest interaction of this SH3 domain) [11] | relative binding strength (% of the strongest interaction of this SH3 domain) [12]
B1 | 37% | 58% | 100% | 95% | – | – | – | – | – | – | – | – | –
B2 | – | – | – | – | 88% | 15% | 49% | 49% | 7% | 5% | 100% | 85% | 7%

Reference: publication PMC3553496 (Science signaling, 2011)
